Assay results taken from patent US20240181073A1, “Antibody-Drug Conjugates Comprising an Anti-BCMA Antibody” (Sorrento Therapeutics, Inc., priority 2021, published 2024).
Positions count from the first letter of the chain named.

What was measured:
[1] = target: T1, Human BCMA (B Cell Maturation Antigen) (human, UniProt Q02223 1-184); assay: cell-based or functional assay
T1 sequence: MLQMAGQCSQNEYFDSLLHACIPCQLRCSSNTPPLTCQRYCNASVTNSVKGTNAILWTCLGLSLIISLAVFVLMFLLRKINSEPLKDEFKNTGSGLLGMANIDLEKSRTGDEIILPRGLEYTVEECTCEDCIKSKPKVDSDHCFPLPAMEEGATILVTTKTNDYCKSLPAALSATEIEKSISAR

BCMA-positive NCI-H929 = assay: In vitro cytotoxicity assay (CellTiter-Glo 2.0, 384-well), Example B2; assay type: cell-based, human; details: for effect on NCI-H929 cell viability: 5-day assays, FIG. 8; for EC50 order of magnitude: comparison of linker chemistry among C-lock conjugations
Method: (§1) The in vitro efficacies of ADCs anti-BCMA-Compound 50, anti-BCMA-Compound 51, anti-BCMA-Compound 52, and anti-BCMA-Compound 53, were compared to anti-BCMA-Compound 3. Anti-BCMA-AB1 clone was conjugated with compounds 50, 51, 52, 53 or 3 and the ADCs were evaluated using the following human cancer cell lines: BCMA-negative K562 and BCMA-positive NCI-H929, purchased from the American Type Culture Collection (ATCC; Manassas, VA).
(§2) Cell Culture Method: The cell lines were cultured in RPMI-1640 medium (Catalog #10-041-CV: Corning) supplemented with 10-20% fetal bovine serum (FBS; Catalog #MT35011CV; Corning) and 1× penicillin-streptomycin (Catalog #30-002-Cl, Corning) and maintained at 37° C. in a 5% C02 humidified environment. Viable cell counts were made by Trypan blue exclusion using a Countess or Countess II automated cell counter.
(§3) The in vitro assays were performed as follows: All cells were harvested by removal of a portion of the cell culture suspension followed by centrifugation at 300 g for 5 minutes, followed by resuspension in cell culture medium (described above in Cell Culture method), viable cell count (as described above in Cell Culture method), and then seeded into 384-well white wall clear bottom plates (Catalog #3765, Corning) at a density of 2,500 cells/well in growth media. Plates were maintained at 37° C. The outer wells of plates contained medium only and were used for background subtraction for the cell viability assay. Working solutions of test articles were prepared at 2× final concentrations with 5-fold serial dilutions in complete growth medium. Cell treatment was performed in either technical triplicates or duplicates and maintained at 37° C. for 120-hour assay. After treatment, cell viability was determined by CellTiter-Glo 2.0 assay (Catalog #G9243; Promega; Madison, WI, USA) based on the manufacturer's instructions. CellTiter Glo reagent reacts with ATP in metabolically active cells to give a luminescent readout that is directly proportional to the number of viable cells. Briefly, plates were removed from the incubator and equilibrated to room temperature before addition of CellTiter Glo reagent. Luminescence was measured using a Tecan Spark microplate reader (Tecan; Mannedorf, Switzerland).
(§4) Data Analysis: For Cytotoxicity assays, raw luminescence data was background subtracted with average luminescence from the outer wells containing medium only and normalized to untreated controls using Excel (Microsoft; Albuquerque, NM). Dose-response relationships and EC50 values were determined based on non-linear regression analysis of normalized data fit to a four-parameter logistic equation using GraphPad Prism 8.0.

BCMA-negative K562 = assay: as above; assay type: cell-based, human; details: 5-day assays, FIG. 8
Method: as §1, §2, §3, §4

[2] = target: T1, Human BCMA (B Cell Maturation Antigen); assay: cell-based or functional assay; remark: listed apart in the source
[3] = target: T1, Human BCMA (B Cell Maturation Antigen); assay: cell-based or functional assay; remark: listed apart in the source

B1: anti-BCMA-AB1-Compound 1 (antibody, human IgG1, V domains shown)
VH: EVQLVESGGGLVKPGGSLRLSCAASGFTSSTAWMSWVRQAPGKGLEWVGRIKSKSDGGTTDYAAPVKGRFTISRDDSKNTLFLQMNSLKTEDTAVYYCAKGGGTYGYWGQGTTVTVSS
VL: QSVLTQPASVSGSPGQSVTISCTGTSSAHGGHYYVSWYQQHPGKAPKLMIYDVSNRPSGVSNRFSGSKSGNTASLTISGLQAEDEADYYCGSYTSSGSYVFGTGTKLTVL
modifications: drug-linker Compound 1 on antibody cysteine thiols (positions not stated)
[1]
  EC50 of cell viability (Cell Titer-Glo), MM.1R (BCMA+) cells, 5-day assay: 1.02 nM
  EC50 of cell viability (Cell Titer-Glo), NCI-H929 (BCMA+) cells, 5-day assay: 0.168 nM

B2: ADC-51 (conjugate)
VH: B1 VH
VL: B1 VL
BCMA-positive NCI-H929
  effect on NCI-H929 cell viability: dose-dependently reduced
  EC50 order of magnitude: single digit nanomolar
BCMA-negative K562
  activity against K562 cells: did not show activity

B3: anti-BCMA-AB1-Compound 7 (antibody, human IgG1, V domains shown)
VH: B1 VH
VL: B1 VL
modifications: drug-linker Compound 7 on antibody cysteine thiols (maleimide conjugation; positions not stated)
[2]
  EC50 of cell viability (Cell Titer-Glo), MM.1R (BCMA+) cells, 4-day assay: 37.7 nM
  EC50 of cell viability (Cell Titer-Glo), NCI-H929 (BCMA+) cells, 4-day assay: 2.64 nM

B4: anti-BCMA-AB1-Compound 4 (antibody, human IgG1, V domains shown)
VH: B1 VH
VL: B1 VL
modifications: drug-linker Compound 4 on antibody cysteine thiols (C-lock conjugation; positions not stated)
[2]
  EC50 of cell viability (Cell Titer-Glo), MM.1R (BCMA+) cells, 4-day assay: > 1000 nM
  EC50 of cell viability (Cell Titer-Glo), NCI-H929 (BCMA+) cells, 4-day assay: 13.1 nM

B5: anti-BCMA-AB2-Compound 6 (antibody, V domains shown)
VH: B1 VH
VL: B1 VL with V3A, A28D, H29G, Y33T, G59W
modifications: drug-linker Compound 6 on antibody cysteine thiols (positions not stated)
[3]
  EC50 of cell viability (Cell Titer-Glo), MM.1R (BCMA+) cells: 129 nM
  EC50 of cell viability (Cell Titer-Glo), NCI-H929 (BCMA+) cells: 9.44 nM

B6: ADC-50 (conjugate)
VH: B1 VH
VL: B1 VL
BCMA-positive NCI-H929
  effect on NCI-H929 cell viability: dose-dependently reduced
  EC50 order of magnitude: sub-nanomolar
BCMA-positive NCI-H929; NCI-H929
  decrease in potency, ADC-50 (C-lock linkage) relative to ADC-53 (PFP linkage): more than 2 fold
BCMA-positive NCI-H929; Table 7, 120-hour (5-day) assay, AB1 clone
  EC50: 0.76 nM
BCMA-negative K562
  activity against K562 cells: did not show activity

B7: anti-BCMA-AB1-Compound 2 (antibody, human IgG1, V domains shown)
VH: B1 VH
VL: B1 VL
modifications: drug-linker Compound 2 on antibody cysteine thiols (positions not stated)
[1]
  EC50 of cell viability (Cell Titer-Glo), MM.1R (BCMA+) cells, 5-day assay: 0.987 nM
  EC50 of cell viability (Cell Titer-Glo), NCI-H929 (BCMA+) cells, 5-day assay: 0.316 nM

B8: anti-BCMA-AB2-Compound 5 (antibody, V domains shown)
VH: B1 VH
VL: B1 VL with V3A, A28D, H29G, Y33T, G59W
modifications: drug-linker Compound 5 on antibody cysteine thiols (positions not stated)
[3]
  EC50 of cell viability (Cell Titer-Glo), MM.1R (BCMA+) cells: 143 nM
  EC50 of cell viability (Cell Titer-Glo), NCI-H929 (BCMA+) cells: 10 nM

B9: ADC-53 (conjugate)
VH: B1 VH
VL: B1 VL
BCMA-positive NCI-H929
  effect on NCI-H929 cell viability: dose-dependently reduced
BCMA-negative K562
  activity against K562 cells: did not show activity

B10: anti-BCMA-AB1-Compound 8 (antibody, human IgG1, V domains shown)
VH: B1 VH
VL: B1 VL
modifications: drug-linker Compound 8 on antibody cysteine thiols (maleimide conjugation; positions not stated)
[2]
  EC50 of cell viability (Cell Titer-Glo), MM.1R (BCMA+) cells, 4-day assay: 348 nM
  EC50 of cell viability (Cell Titer-Glo), NCI-H929 (BCMA+) cells, 4-day assay: 5.15 nM

B11: anti-BCMA-AB1-Compound 5 (antibody, human IgG1, V domains shown)
VH: B1 VH
VL: B1 VL
modifications: drug-linker Compound 5 on antibody cysteine thiols (C-lock conjugation; positions not stated)
[2]
  EC50 of cell viability (Cell Titer-Glo), MM.1R (BCMA+) cells, 4-day assay: 20.5 nM
  EC50 of cell viability (Cell Titer-Glo), NCI-H929 (BCMA+) cells, 4-day assay: 3.04 nM

B12: anti-BCMA-AB2-Compound 7 (antibody, V domains shown)
VH: B1 VH
VL: B1 VL with V3A, A28D, H29G, Y33T, G59W
modifications: drug-linker Compound 7 on antibody cysteine thiols (positions not stated)
[3]
  EC50 of cell viability (Cell Titer-Glo), MM.1R (BCMA+) cells: 259 nM
  EC50 of cell viability (Cell Titer-Glo), NCI-H929 (BCMA+) cells: 19.4 nM

B13: anti-BCMA-AB1-Compound 6 (antibody, human IgG1, V domains shown)
VH: B1 VH
VL: B1 VL
modifications: drug-linker Compound 6 on antibody cysteine thiols (C-lock conjugation; positions not stated)
[2]
  EC50 of cell viability (Cell Titer-Glo), MM.1R (BCMA+) cells, 4-day assay: 16.6 nM
  EC50 of cell viability (Cell Titer-Glo), NCI-H929 (BCMA+) cells, 4-day assay: 2.38 nM

B14: ADC-52 (conjugate)
VH: B1 VH
VL: B1 VL
BCMA-positive NCI-H929
  effect on NCI-H929 cell viability: dose-dependently reduced
  EC50 order of magnitude: sub-nanomolar
BCMA-positive NCI-H929; NCI-H929
  enhanced potency compared to ADC-3: ~2 fold
BCMA-negative K562
  activity against K562 cells: did not show activity

B15: anti-BCMA-AB2-Compound 4 (antibody, V domains shown)
VH: B1 VH
VL: B1 VL with V3A, A28D, H29G, Y33T, G59W
modifications: drug-linker Compound 4 on antibody cysteine thiols (positions not stated)
[3]
  EC50 of cell viability (Cell Titer-Glo), MM.1R (BCMA+) cells: > 1000 nM
  EC50 of cell viability (Cell Titer-Glo), NCI-H929 (BCMA+) cells: 59 nM

B16: anti-BCMA-AB2-Compound 8 (antibody, V domains shown)
VH: B1 VH
VL: B1 VL with V3A, A28D, H29G, Y33T, G59W
modifications: drug-linker Compound 8 on antibody cysteine thiols (positions not stated)
[3]
  EC50 of cell viability (Cell Titer-Glo), MM.1R (BCMA+) cells: > 1000 nM
  EC50 of cell viability (Cell Titer-Glo), NCI-H929 (BCMA+) cells: 29.7 nM

B17: anti-BCMA-AB2-Compound 3 (antibody, V domains shown)
VH: B1 VH
VL: B1 VL with V3A, A28D, H29G, Y33T, G59W
modifications: drug-linker Compound 3 on antibody cysteine thiols (positions not stated)
[3]
  EC50 of cell viability (Cell Titer-Glo), MM.1R (BCMA+) cells: 55.3 nM
  EC50 of cell viability (Cell Titer-Glo), NCI-H929 (BCMA+) cells: 7.31 nM
